Here are results for 2 substances from patent publication US20040018515.

On to Mek1, for which, in the data set with Erk2, the “initial rate of fluorescence increase (535 nm) of the ADP NASM FRET assay, reporting ADP yield from ATP hydrolysis” value is listed as “substantially enhanced fluorescence was observed (Table 17, shaded cells; 150-300 RFU/min)”.

On to Mek 6, for which, in the data set with p386, the “initial rate of fluorescence increase (535 nm) of the ADP NASM FRET assay, reporting ADP yield from ATP hydrolysis” value is listed as “substantially enhanced fluorescence was observed (Table 17, shaded cells; 150-300 RFU/min)”.
